The values below come from PMC4734655.

The assay deals with recombinant human IL-8 (interleukin-8) (human). As to the kind of experiment: SPR; Biacore; IL-8 immobilised on a CM5 chip by amine coupling (Fc2), BSA on the reference cell (Fc1); soluble recombinant Mtb proteins as analytes at 2.5, 5, 10 and 20 uM; 22 °C, PBS pH 7.4 with 0.005% P20; flow 5 ul/min; one-to-one model. A general note: Surface plasmon resonance follows binding to a sensor surface in real time, without labels.

The term Kd denotes the equilibrium constant for the complex coming apart.

B1: recombinant M. tuberculosis rGlmU (His-tagged, from pHis-glmU) (enzyme)
chain: MTFPGDTAVLVLAAGPGTRMRSDTPKVLHTLAGRSMLSHVLHAIAKLAPQRLIVVLGHDHQRIAPLVGELADTLGRTIDVALQDRPLGTGHAVLCGLSALPDDYAGNVVVTSGDTPLLDADTLADLIATHRAVSAAVTVLTTTLDDPFGYGRILRTQDHEVMAIVEQTDATPSQREIREVNAGVYAFDIAALRSALSRLSSNNAQQELYLTDVIAILRSDGQTVHASHVDDSALVAGVNNRVQLAELASELNRRVVAAHQLAGVTVVDPATTWIDVDVTIGRDTVIHPGTQLLGRTQIGGRCVVGPDTTLTDVAVGDGASVVRTHGSSSSIGDGAAVGPFTYLRPGTALGADGKLGAFVEVKNSTIGTGTKVPHLTYVGDADIGEYSNIGASSVFVNYDGTSKRRTTVGSHVRTGSDTMFVAPVTIGDGAYTGAGTVVREDVPPGALAVSAGPQRNIENWVQRKRPGSPAAQASKRASEMACQQPTQPPDADQTP
B1: the Kd was determined as 5.24 µM.

B2: recombinant M. tuberculosis rAtsG (His-tagged, from pHis-atsG) (enzyme)
chain: MTSERATGQRENLLIVHWHDLGRYLGVYHHPDVYSPRLDRLAAEGILFTRAHATAPLCTPSRGSLFTGRYPQSNGLVGLAHHGWEYRTGVQTLPQLLSESGWYSALFGMQHETSYPKRLGFDEFDVSNSYCEYVVAKAQDWLHNRVPALDGQRFLLTAGFFETHRPYPHERYRPADSAAVELPDYLPDTPEVRQDVAEFYGSIATADEAVGRLLDTLADTGLDASTWVVFVTDHGPAFPRAKSTLYDAGTGIALIIRPPTRRAMAPRVYDELFSGVDLVPTLLDLLRLEVPADVEGVSHAPALLAPDTENAAVRDHVYTAKTYHDSFDPIRAIRTKEYSYIENYAPRPLLDLPWDIQESPAGMAVAPLVKAPRPQRELYDLRADPTETNNLLAGDDSTQGVAAIAADLAVRLHDWRQRTADVIPSDFAGSRIAERYTETYLRIHRKTPTGRSAIAADRGIDEHCS
Regarding B2, the Kd turned out to be 6.83 µM.
